Measured values reported in patent US20160060347A1 (MorphoSys, published 2016).

T1: human CXCR2 (human, UniProt P25025 1-360)
T1 construct: Expressed on Flp-In CHO cells (FACS, Fab-ZAP, ADCC, CDC) or on bought PathHunter CHO cells (beta-arrestin assay); the construct in the PathHunter cells is not described; also called chemokine receptor CXCR2; CXCR2 CHO Flp-In cells
T1 sequence: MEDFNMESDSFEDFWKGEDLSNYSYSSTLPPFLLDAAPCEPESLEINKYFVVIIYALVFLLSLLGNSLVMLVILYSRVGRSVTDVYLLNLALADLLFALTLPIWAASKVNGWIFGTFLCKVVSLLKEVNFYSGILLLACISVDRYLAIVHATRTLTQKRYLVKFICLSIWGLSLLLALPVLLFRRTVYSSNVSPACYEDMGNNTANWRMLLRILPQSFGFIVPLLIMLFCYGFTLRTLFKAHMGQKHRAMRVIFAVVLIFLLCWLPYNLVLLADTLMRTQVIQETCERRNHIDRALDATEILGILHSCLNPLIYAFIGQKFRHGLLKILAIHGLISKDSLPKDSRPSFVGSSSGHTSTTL

B1: CX2-Mab #5 (IgG1 format) (antibody, V domains shown)
VH: EVQLLESGGGLVQPGGSLRLSCAASGFTFNSNAMSWVRQAPGKGLEWVSFISYSGSHTYYADSVKGRFTISRDNSKNTLYLQMNSLRAEDTAVYYCARYTRFLSRPAFDPWGQGTLVTVSS
VL: DIVLTQPPSVSGAPGQRVTISCTGSSSNIGAGYDVHWYQQLPGTAPKLLIYYNSKRPSGVPDRFSGSKSGTSASLAITGLQAEDEADYYCGAYDRKMNSYVFGGGTKLTVLG
notes: Fab converted into IgG1 format, expressed in a human cell line, protein A purified
B2: CX2-Mab #6 (IgG1 format) (antibody, V domains shown)
VH: EVQLLESGGGLVQPGGSLRLSCAASGFTFSSYTMSWVRQAPGKGLEWVSAIHSSGSSTYYADSVKGRFTISRDNSKNTLYLQMNSLRAEDTAVYYCARVPAYYGFDHWGQGTLVTVSS
VL: DIELTQPPSVSVSPGQTASITCSGDSLGAFYVHWYQQKPGQAPVLVIYRTNNRPSGIPERFSGSNSGNTATLTISGTQAEDEADYYCASYASRNRVFGGGTKLTVLG
notes: as for B1
B3: CX2-Mab #1 (IgG1 format) (antibody, V domains shown)
VH: QVQLVQSGAEVKKPGSSVKVSCKASGGTFSSYAISWVRQAPGQGLEWMGGIIPIVGEAKYAQKFQGRVTITADESTSTAYMELSSLRSEDTAVYYCARDSSGYDGYYAFAYWGQGTQVTVSS
VL: DIVLTQPPSVSGAPGQRGTISCSGSSSNIGSSSVNWYQQLPGTAPKLLIYRNNQRPSGVPDRFSGSKSGTSASLAITGLQAEDEADYYCGATDFSANQVVFGGGTKLTVLG
notes: Fab converted into IgG1 format, expressed in a human cell line, protein A purified; also called parental
B4: CX2-Mab #4 (IgG1 format) (antibody, V domains shown)
VH: EVQLLESGGGLVQPGGSLRLSCAASGFTFSSNGMSWVRQAPGKGLEWVSAISSSGSKTYYADSVKGRFTISRDNSKNTLYLQMNSLRAEDTAVYYCARGYGFDVWGQGTLVTVSS
VL: DIVLTQPPSVSGAPGQRVTISCSGSSSNIGVNIVNWYQQLPGTAPKLLIYSTSNRPSGVPDRFSGSKSGTSASLAITGLQAEDEADYYCATRDGISKSVVFGGGTKLTVLG
notes: as for B3
B5: CX2-Mab #2 (IgG1 format) (antibody, V domains shown)
VH: QVQLVQSGAEVKKPGASVKVSCKASGYTFSRYAMHWVRQAPGQGLEWMGVINPYNGNTRYAQKFQGRVTMTRDTSISTAYMELSRLRSEDTAVYYCARGSHIQAGAFDYWGQGTLVTVSS
VL: DIQMTQSPSSLSASVGDRVTITCRASQGINNRLNWYQQKPGKAPKLLIYDGSSLQSGVPSRFSGSGSGTDFTLTISSLQPEDFATYYCQQYIHFPVTFGQGTKVEIKR
notes: as for B1
B6: CX2-Mab #3 (IgG1 format) (antibody, V domains shown)
VH: EVQLLESGGGLVQPGGSLRLSCAASGFTFSSYWMSWVRQAPGKGLEWVSVISYSGSETFYADSVKGRFTISRDNSKNTLYLQMNSLRAEDTAVYYCARGRVGYAFDYWGQGTLVTVSS
VL: DIVLTQPPSVSGAPGQRVTISCSGSSSNIGVNYVNWYQQLPGTAPKLLIYSNNQRPSGVPDRFSGSKSGTSASLAITGLQAEDEADYYCQSRASGFYSVVFGGGTKLTVLG
notes: as for B3

target: T1, human CXCR2; experiment: FACS, CXCR2 Flp-In CHO cells, IgG1
Procedure: Human CXCR2-expressing Flp-In™ CHO cells were harvested at ˜80% confluence washed once with PBS (Gibco, Cat #14190-094) and detached using Versene (Invitrogen, Cat #15040-033). Subsequently, cells were counted and centrifuged at 250×g for 5 min at 4° C. Afterwards, cells were diluted in Superblock (Thermo Fisher Perbio Science, Cat #37515) to a cell concentration of 2E+05-1E+06/mL and 100 μL/well were transferred to 96-well microtiter plate (Nunc, Cat#163320). Cells were once centrifuged, supernatant discarded and antibodies added at 1 μg/mL (unless stated otherwise), incubated for 1 h at 4° C. and washed twice with FACS buffer (PBS/3% FCS/0.02% NaN3). Binding of anti-CXCR2 antibodies was detected by incubation of Phycoerythrin-conjugated anti-human IgG (Dianova, Cat #109-116-097) for 1 h at 4° C. Samples were subsequently measured using FACS Array (Becton Dickinson).
All six Fabs were converted into IgG1 format and were expressed in a human cell line and purified via protein A chromatography for further analysis. All antibodies were tested for specific CXCR2 binding on CXCR2-expressing CHO Flp-In™ cells by FACS. Additionally, inhibition of CXCR2 mediated beta-arrestin signaling by the antibodies was analyzed. Furthermore, IC₅₀ concentrations for cytotoxicity of respective antibodies via secondary immunotoxin in a Fab-ZAP assay using CXCR2 expressing CHO Flp-In™ cells were determined together with the capability of the antibodies to induce complement-dependent cellular cytotoxicity (CDC) and antibody-dependent cellular toxicity (ADCC). Respective experimental settings as outlined in Example 3 were used (data of one representative experiment are shown).

Row | EC50 | Binder
1 | 17.7 nM | B1
2 | 0.1 nM | B2
3 | 0.4 nM | B3
4 | 0.1 nM | B4
5 | > 667 nM | B5
6 | 0.2 nM | B6
